{"source": "paper PMC2884063", "origin": "cited, not measured here", "target": "Importin β (Homo sapiens) (UniProt Q14974)", "sequence (Q14974 whole entry)": "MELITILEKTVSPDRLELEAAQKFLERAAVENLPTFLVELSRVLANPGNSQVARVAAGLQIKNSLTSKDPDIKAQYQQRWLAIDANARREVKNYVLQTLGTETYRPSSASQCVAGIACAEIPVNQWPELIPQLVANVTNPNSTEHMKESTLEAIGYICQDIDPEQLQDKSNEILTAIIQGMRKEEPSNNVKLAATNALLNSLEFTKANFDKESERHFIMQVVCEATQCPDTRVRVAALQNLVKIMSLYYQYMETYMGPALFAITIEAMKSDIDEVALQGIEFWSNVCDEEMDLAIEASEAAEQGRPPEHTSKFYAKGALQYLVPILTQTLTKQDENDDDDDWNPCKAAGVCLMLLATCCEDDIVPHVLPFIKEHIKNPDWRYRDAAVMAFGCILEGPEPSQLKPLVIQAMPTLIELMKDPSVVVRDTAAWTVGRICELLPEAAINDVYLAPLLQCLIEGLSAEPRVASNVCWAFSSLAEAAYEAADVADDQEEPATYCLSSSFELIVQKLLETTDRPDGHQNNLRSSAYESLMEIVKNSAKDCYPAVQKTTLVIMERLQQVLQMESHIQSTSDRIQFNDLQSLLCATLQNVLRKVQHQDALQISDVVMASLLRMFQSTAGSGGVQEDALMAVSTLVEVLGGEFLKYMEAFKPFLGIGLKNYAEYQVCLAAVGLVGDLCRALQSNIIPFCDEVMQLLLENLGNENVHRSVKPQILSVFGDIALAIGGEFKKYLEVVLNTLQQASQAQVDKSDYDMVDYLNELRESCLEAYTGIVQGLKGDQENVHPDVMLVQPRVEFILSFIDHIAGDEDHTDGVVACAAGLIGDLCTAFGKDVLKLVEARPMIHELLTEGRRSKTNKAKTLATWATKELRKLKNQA"}
{"substance": "Snp1 (snurportin 1) IBB (from UniProt O95149)", "values": [{"measurement": "Kd", "value": 2, "unit": "nM"}]}
